Target: flt(1,2,3): flt-1 Ig-like domains 1, 2 and 3 only fused to the Fc of IgG (human) [IgG part: P01857]
Experiment: unlabeled VEGF titrated against 125I-VEGF165 binding to 1 ng immunoreactive flt(1, 2, 3) on anti-Fc plates; 4-parameter fit (FIG. 5)

Chain of vascular endothelial growth factor VEGF165 (P15692 other isoform, or with tags, fused parts or gaps limits assumed): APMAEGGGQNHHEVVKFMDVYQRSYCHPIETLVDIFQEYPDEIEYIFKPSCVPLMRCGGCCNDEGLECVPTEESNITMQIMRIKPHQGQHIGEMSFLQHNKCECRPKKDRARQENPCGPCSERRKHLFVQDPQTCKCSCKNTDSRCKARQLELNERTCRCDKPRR

IC50: 1.34 ng/mL
Substance: vascular endothelial growth factor VEGF165 (from UniProt P15692 27-191) (ligand)

Source: patent US6897294
